Source: patent US20260242419A1, “A CYCLIC PEPTIDE FOR TRAPPING INTERLEUKIN-1 BETA” (Merck Sharp & Dohme LLC, priority 2023, published 2026)
Starred links: 1 amine or outer side, 2 acyl side, 3 side chain; linkers in the order of their positions; H or OH if unused. Non-standard residues stand in square brackets, D forms with d. Primed or numbered codes have the meaning given here. AEFBz4Piperaz = (S)-2-amino-3-(4-(2-(4-(piperazin-1-yl)benzamido)ethoxy)phenyl)propanoic acid, O=C(NCCOc1ccc(C[C@H](N[*:1])C(=O)[*:2])cc1)c1ccc(N2CCN([*:3])CC2)cc1; AEF4AcPip4c = (S)-3-(4-(2-(1-acetylpiperidine-4-carboxamido)ethoxy)phenyl)-2-aminopropanoic acid, CC(=O)N1CCC(C(=O)NCCOc2ccc(C[C@H](N[*:1])C(=O)[*:2])cc2)CC1; AEF2PyrimCO = (S)-2-amino-3-(4-(2-(pyrimidine-2-carboxamido)ethoxy)phenyl)propanoic acid, O=C(NCCOc1ccc(C[C@H](N[*:1])C(=O)[*:2])cc1)c1ncccn1; AEF4PyrimCO = (S)-2-amino-3-(4-(2-(pyrimidine-4-carboxamido)ethoxy)phenyl)propanoic acid, O=C(NCCOc1ccc(C[C@H](N[*:1])C(=O)[*:2])cc1)c1ccncn1; AEFPyrzCO = (S)-2-amino-3-(4-(2-(pyrazine-2-carboxamido)ethoxy)phenyl)propanoic acid, O=C(NCCOc1ccc(C[C@H](N[*:1])C(=O)[*:2])cc1)c1cnccn1; AEFcHex = (S)-2-amino-3-(4-(2-(cyclohexanecarboxamido)ethoxy)phenyl)propanoic acid, O=C(NCCOc1ccc(C[C@H](N[*:1])C(=O)[*:2])cc1)C1CCCCC1; AEF4PyrCO = (S)-2-amino-3-(4-(2-(isonicotinamido)ethoxy)phenyl)propanoic acid, O=C(NCCOc1ccc(C[C@H](N[*:1])C(=O)[*:2])cc1)c1ccncc1; AEFPiv = (S)-2-amino-3-(4-(2-pivalamidoethoxy)phenyl)propanoic acid, CC(C)(C)C(=O)NCCOc1ccc(C[C@H](N[*:1])C(=O)[*:2])cc1; AEFBz = (S)-2-amino-3-(4-(2-benzamidoethoxy)phenyl)propanoic acid, O=C(NCCOc1ccc(C[C@H](N[*:1])C(=O)[*:2])cc1)c1ccccc1; TyrEtNAc = (2S)-3-[4-(2-acetamidoethoxy)phenyl]-2-amino-propanoic acid, CC(=O)NCCOc1ccc(C[C@H](N[*:1])C(=O)[*:2])cc1; Bip4CONMe2″ = 4'-(dimethylcarbamoyl)biphenylalanine, CN(C)C(=O)c1ccc(-c2ccc(C[C@H](N[*:1])C(=O)[*:2])cc2)cc1; OrnMe3 = ornithine with side-chain trimethylammonium, C[N+](C)(C)CCC[C@H](N[*:1])C(=O)[*:2]; 4PyrimAla″ = 3-(pyrimidin-4-yl)alanine, O=C([C@H](Cc1ccncn1)N[*:1])[*:2]; dPro(4R-(4-pyridylmethyl)) = O=C(O)[C@H]1C[C@@H](Cc2ccncc2)CN1; Trp(βS-Me,4-F) = C[C@@H](c1c[nH]c2cccc(F)c12)[C@H](N)C(=O)O; Bip(4'-CONH2) = NC(=O)c1ccc(-c2ccc(C[C@H](N)C(=O)O)cc2)cc1; Bip(4'-COOH) = N[C@@H](Cc1ccc(-c2ccc(C(=O)O)cc2)cc1)C(=O)O; dPro(4R-Bzl(4-F)) = O=C(O)[C@H]1C[C@@H](Cc2ccc(F)cc2)CN1; dPro(3S-(4-F-Bn)) = O=C(O)[C@@H]1NCC[C@@H]1Cc1ccc(F)cc1; Ala(pyrimidin-5-yl) = N[C@@H](Cc1cncnc1)C(=O)O; Phe(4-COOH) = N[C@@H](Cc1ccc(C(=O)O)cc1)C(=O)O; Phe(4-tBu) = CC(C)(C)c1ccc(C[C@H](N)C(=O)O)cc1; Bip = N[C@@H](Cc1ccc(-c2ccccc2)cc1)C(=O)O; Lys(Me3) = C[N+](C)(C)CCCC[C@H](N)C(=O)O; Phe(3-Cl) = N[C@@H](Cc1cccc(Cl)c1)C(=O)O; Phe(4-Br) = N[C@@H](Cc1ccc(Br)cc1)C(=O)O; Pro(cis-4-F) = O=C(O)[C@@H]1C[C@H](F)CN1; Ala(4-THP) = N[C@@H](CC1CCOCC1)C(=O)O; d(αMeD) = C[C@@](N)(CC(=O)O)C(=O)O; 4Pal = N[C@@H](Cc1ccncc1)C(=O)O; Dab = NCC[C@H](N)C(=O)O; Aib = CC(C)(N)C(=O)O

Target: Recombinant human IL-1β (BioLegend 579404) (human, UniProt P01584 117-269)
Experiment: cell-based or functional assay

Binder	MRC5 IC50 [nM]
cyclo([Phe(4-tBu)][4Pal][Phe(4-COOH)]G[Pro(cis-4-F)][Trp(βS-Me,4-F)][Aib]EW[Aib][Ala(pyrimidin-5-yl)]Q[Dab]G[dPro(4R-(4-pyridylmethyl))]) (ring closure inferred; not fully specified (N-terminus); printed as cyclic, Phe4tButyl-4Pal-Phe4COOH-G-Proc4F-SbMeW4F-Aib-E-W-Aib-PyrimAla-Q-Dab-G-dProc4CH24Pal) [SEQ ID NO 311]	0.017
cyclo([Bip(4'-COOH)][4Pal][Phe(4-COOH)]G[Pro(cis-4-F)][Trp(βS-Me,4-F)][Aib]SW[Aib][Lys(Me3)]Q[Dab]G[dPro(4R-Bzl(4-F))]) (ring closure inferred; not fully specified (N-terminus); printed as cyclic, Bip4CO2H-4Pal-Phe4COOH-G-Proc4F-sbMeW4F-Aib-S-W-Aib-LysMe3-Q-Dab-G-dProc4Bn4F) [SEQ ID NO 298]	0.015
cyclo([Bip(4'-COOH)][4Pal][Phe(4-COOH)]G[Pro(cis-4-F)][Trp(βS-Me,4-F)][Aib]EW[Aib][4PyrimAla″]Q[Dab]G[dPro(3S-(4-F-Bn))]) (ring closure inferred; not fully specified (N-terminus); printed as cyclic, Bip4CO2H-4Pal-Phe4COOH-G-Proc4F-SbMeW4F-Aib-E-W-Aib-4PyrimAla-Q-Dab-G-dProc3Bn4F) [SEQ ID NO 312]	0.017
cyclo([AEFBz][4Pal][Phe(4-COOH)]G[Pro(cis-4-F)][Trp(βS-Me,4-F)][Aib]SW[Aib][Ala(pyrimidin-5-yl)]Q[Dab]G[dPro(4R-(4-pyridylmethyl))]) (ring closure inferred; not fully specified (N-terminus); printed as cyclic, AEFBz-4Pal-Phe4COOH-G-Proc4F-SbMeW4F-Aib-S-W-Aib-PyrimAla-Q-Dab-G-dProc4CH24Pal) [SEQ ID NO 308]	0.013
cyclo([AEF2PyrimCO][4Pal][Phe(4-COOH)]G[Pro(cis-4-F)][Trp(βS-Me,4-F)][Aib]SW[Aib][Ala(pyrimidin-5-yl)]Q[Dab]G[dPro(4R-(4-pyridylmethyl))]) (ring closure inferred; not fully specified (N-terminus); printed as cyclic, AEF2PyrimCO-4Pal-Phe4COOH-G-Proc4F-SbMeW4F-Aib-S-W-Aib-PyrimAla-Q-Dab-G-dProc4CH24Pal) [SEQ ID NO 304]	0.014
cyclo([TyrEtNAc][4Pal][Phe(4-COOH)]G[Pro(cis-4-F)][Trp(βS-Me,4-F)][Aib]EW[Aib]YQ[Dab]G[dPro(4R-(4-pyridylmethyl))]) (ring closure inferred; not fully specified (N-terminus)) [SEQ ID NO 310]	0.017
cyclo([Bip][4Pal][Phe(4-COOH)]G[Pro(cis-4-F)][Trp(βS-Me,4-F)][Aib]SW[d(αMeD)][Ala(4-THP)]Q[Dab]G[dPro(4R-(4-pyridylmethyl))]) (ring closure inferred; not fully specified (N-terminus); printed as cyclic, Bip-4Pal-Phe4COOH-G-Proc4F-SbMeW4F-Aib-S-W-daMeD-AlaTHP4-Q-Dab-G-dProc4CH24Pal) [SEQ ID NO 294]	0.014
cyclo([AEF4AcPip4c][4Pal][Phe(4-COOH)]G[Pro(cis-4-F)][Trp(βS-Me,4-F)][Aib]SW[Aib][Ala(pyrimidin-5-yl)]Q[Dab]G[dPro(4R-(4-pyridylmethyl))]) (ring closure inferred; not fully specified (N-terminus); printed as cyclic, AEF4AcPip4c-4Pal-Phe4COOH-G-Proc4F-SbMeW4F-Aib-S-W-Aib-PyrimAla-Q-Dab-G-dProc4CH24Pal) [SEQ ID NO 302]	0.017
cyclo([AEF4PyrimCO][4Pal][Phe(4-COOH)]G[Pro(cis-4-F)][Trp(βS-Me,4-F)][Aib]SW[Aib][Ala(pyrimidin-5-yl)]Q[Dab]G[dPro(4R-(4-pyridylmethyl))]) (ring closure inferred; not fully specified (N-terminus); printed as cyclic, AEF4PyrimCO-4Pal-Phe4COOH-G-Proc4F-SbMeW4F-Aib-S-W-Aib-PyrimAla-Q-Dab-G-dProc4CH24Pal) [SEQ ID NO 305]	0.016
cyclo([AEFPiv][4Pal][Phe(4-COOH)]G[Pro(cis-4-F)][Trp(βS-Me,4-F)][Aib]SW[Aib][Ala(pyrimidin-5-yl)]Q[Dab]G[dPro(4R-(4-pyridylmethyl))]) (ring closure inferred; not fully specified (N-terminus)) [SEQ ID NO 300]	0.013
cyclo([AEF4PyrCO][4Pal][Phe(4-COOH)]G[Pro(cis-4-F)][Trp(βS-Me,4-F)][Aib]SW[Aib][Ala(pyrimidin-5-yl)]Q[Dab]G[dPro(4R-(4-pyridylmethyl))]) (ring closure inferred; not fully specified (N-terminus); printed as cyclic, AEF4PyrCO-4Pal-Phe4COOH-G-Proc4F-SbMeW4F-Aib-S-W-Aib-PyrimAla-Q-Dab-G-dProc4CH24Pal) [SEQ ID NO 307]	0.018
cyclo([Bip(4'-COOH)][4Pal][Phe(4-COOH)]G[Pro(cis-4-F)][Trp(βS-Me,4-F)][Aib]SW[Aib][OrnMe3]Q[Dab]G[dPro(4R-Bzl(4-F))]) (ring closure inferred; not fully specified (N-terminus); printed as cyclic, Bip4CO2H-4Pal-Phe4COOH-G-Proc4F-sbMeW4F-Aib-S-W-Aib-OrnMe3-Q-Dab-G-dProc4Bn4F) [SEQ ID NO 297]	0.022
cyclo([Bip4CONMe2″][4Pal][Phe(4-COOH)]G[Pro(cis-4-F)][Trp(βS-Me,4-F)][Aib]SW[d(αMeD)][Ala(4-THP)]Q[Dab]G[dPro(4R-(4-pyridylmethyl))]) (ring closure inferred; not fully specified (N-terminus); printed as cyclic, Bip4CONMe2-4Pal-Phe4COOH-G-Proc4F-SbMeW4F-Aib-S-W-daMeD-AlaTHP4-Q-Dab-G-dProc4CH24Pal) [SEQ ID NO 295]	0.012
cyclo([AEFPyrzCO][4Pal][Phe(4-COOH)]G[Pro(cis-4-F)][Trp(βS-Me,4-F)][Aib]SW[Aib][Ala(pyrimidin-5-yl)]Q[Dab]G[dPro(4R-(4-pyridylmethyl))]) (ring closure inferred; not fully specified (N-terminus); printed as cyclic, AEFPyrzCO-4Pal-Phe4COOH-G-Proc4F-SbMeW4F-Aib-S-W-Aib-PyrimAla-Q-Dab-G-dProc4CH24Pal) [SEQ ID NO 303]	0.016
cyclo([Bip(4'-CONH2)][4Pal][Phe(4-COOH)]G[Pro(cis-4-F)][Trp(βS-Me,4-F)][Aib]SW[d(αMeD)][Ala(4-THP)]Q[Dab]G[dPro(4R-(4-pyridylmethyl))]) (ring closure inferred; not fully specified (N-terminus); printed as cyclic, Bip4CONH2-4Pal-Phe4COOH-G-Proc4F-SbMeW4F-Aib-S-W-daMeD-AlaTHP4-Q-Dab-G-dProc4CH24Pal) [SEQ ID NO 296]	0.013
cyclo([AEFBz4Piperaz][4Pal][Phe(4-COOH)]G[Pro(cis-4-F)][Trp(βS-Me,4-F)][Aib]SW[Aib][Ala(pyrimidin-5-yl)]Q[Dab]G[dPro(4R-(4-pyridylmethyl))]) (ring closure inferred; not fully specified (N-terminus); printed as cyclic, AEFBz4Piperaz-4Pal-Phe4COOH-G-Proc4F-SbMeW4F-Aib-S-W-Aib-PyrimAla-Q-Dab-G-dProc4CH24Pal) [SEQ ID NO 306]	0.02
cyclo([AEFcHex][4Pal][Phe(4-COOH)]G[Pro(cis-4-F)][Trp(βS-Me,4-F)][Aib]SW[Aib][Ala(pyrimidin-5-yl)]Q[Dab]G[dPro(4R-(4-pyridylmethyl))]) (ring closure inferred; not fully specified (N-terminus)) [SEQ ID NO 301]	0.017
cyclo([Phe(4-Br)][4Pal][Phe(4-COOH)]G[Pro(cis-4-F)][Trp(βS-Me,4-F)][Aib]SW[d(αMeD)][Ala(pyrimidin-5-yl)]Q[Dab]G[dPro(3S-(4-F-Bn))]) (ring closure inferred; not fully specified (N-terminus); printed as cyclic, Phe4Br-4Pal-Phe4COOH-G-Proc4F-SbMeW4F-Aib-S-W-daMeD-PyrimAla-Q-Dab-G-dProc3Bn4F) [SEQ ID NO 299]	0.012
cyclo([TyrEtNAc][4Pal][Phe(4-COOH)]G[Pro(cis-4-F)][Trp(βS-Me,4-F)][Aib]EW[Aib][Phe(3-Cl)]Q[Dab]G[dPro(4R-(4-pyridylmethyl))]) (ring closure inferred; not fully specified (N-terminus)) [SEQ ID NO 309]	0.018
